Consider 2 molecules from paper PMC9348577, “Dimerization of kringle 1 domain from hepatocyte growth factor/scatter factor provides a potent MET receptor agonist” (Life Science Alliance, 2022).

The target of assay [1] is T1, MET567 (human, UniProt P08581 25-567).
T1 construct: human MET receptor fragment MET567 comprising the N-terminal SEMA domain and the cysteine-rich/PSI domain; as I recall it spans residues 25-567 of MET; also called MET567 receptor fragment; MET567 fragment; source: CHO Lec 3.2.8.1 cells, purified as described in Gherardi et al (2003)
The assay is described as follows: SPR; Biacore T200; MET567 immobilised at low density (515 RU) by amine coupling on a CM5 chip; 25°C, PBST (PBS + 0.05% Tween 20), 30 ul/min, 300-s injections to equilibrium; apparent KD from the binding isotherm. The following applies: both partners purified.

Assay [2] deals with T1, MET567. The assay is described as follows: SEC-SAXS; K1K1 in complex with MET567 injected on Superdex 200 PC 3.2/300 Increase on line with SAXS (ESRF BM29); 25 mM Tris (pH 7.4), 150 mM NaCl. The following applies: both partners purified.

T1 sequence (P08581 25-567): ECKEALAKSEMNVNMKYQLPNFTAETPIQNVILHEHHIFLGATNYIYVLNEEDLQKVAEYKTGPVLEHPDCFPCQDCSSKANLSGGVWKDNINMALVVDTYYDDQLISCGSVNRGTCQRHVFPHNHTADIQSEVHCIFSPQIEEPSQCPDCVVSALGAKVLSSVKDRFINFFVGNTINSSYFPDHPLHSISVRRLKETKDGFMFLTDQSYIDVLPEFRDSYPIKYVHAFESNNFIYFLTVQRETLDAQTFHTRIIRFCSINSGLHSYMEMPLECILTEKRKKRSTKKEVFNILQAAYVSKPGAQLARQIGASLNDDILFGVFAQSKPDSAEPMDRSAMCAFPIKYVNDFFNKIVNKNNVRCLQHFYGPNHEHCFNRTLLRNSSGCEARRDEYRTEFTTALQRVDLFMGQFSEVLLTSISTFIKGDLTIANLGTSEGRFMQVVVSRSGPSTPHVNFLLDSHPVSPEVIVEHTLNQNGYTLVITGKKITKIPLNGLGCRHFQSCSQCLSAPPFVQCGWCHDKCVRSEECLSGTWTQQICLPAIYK

B1: NK1 (natural protein, human, UniProt P14210 28-209, looked up)
chain: YAEGQRKRRNTIHEFKKSAKTTLIKIDPALKIKTKKVNTADQCANRCTRNKGLPFTCKAFVFDKARKQCLWFPFNSMSSGVKKEFGHEFDLYENKDYIRNCIIGKGRSYKGTVSITKSGIKCQPWSSMIPHEHSFLPSSYRGKDLQENYCRNPRGEEGGPWCFTSNPEVRYEVCDIPQCSEV
notes: human NK1, splice variant of HGF/SF with the N-domain and the first kringle domain (K1), residues 28-209; also called recombinant human NK1 protein; wild-type NK1; source: Pichia pastoris, purified as described in Chirgadze et al (1999)
Regarding B1, the Kd with MET567 [1] is 200 nM.

B2: K1K1 (ligand)
chain: AIRNCIIGKGRSYKGTVSITKSGIKCQPWSSMIPHEHSFLPSSYRGKDLQENYCRNPRGEEGGPWCFTSNPEVRYEVCDIPQCSEVECIIGKGRSYKGTVSITKSGIKCQPWSSMIPHEHSFLPSSYRGKDLQENYCRNPRGEEGGPWCFTSNPEVRYEVCDIPQCSEVE
modifications: Intra-kringle disulphides (three per kringle). The initiator Met of the MAIRN construct is absent from the 7OCL entity, so paper numbering = entity number + 1. Layout: (M)AIRN + HGF 128-206 + SEVE + …
What is called stoichiometry N is a count of units in the complex or per binding partner. Take B2: the “stoichiometry N” value in the assay with MET567 [2] came to 1. In addition, in the assay with MET567 [1], the Kd was determined as 205 nM.
